Measured values from patent US20250333441A1, “POLYPEPTIDE INHIBITORS AND USES THEREOF” (Neuracle Science Co., Ltd., priority 2021, published 2025).

B1: LRRC4B (230-713): FLAG-tagged LRRC4B deletion construct, amino acids 230-713 of SEQ ID NO: 2 (SEQ ID NO: 54) (protein)
chain: RLEELELSGNRLDLIRPGSFQGLTSLRKLWLMHAQVATIERNAFDDLKSLEELNLSHNNLMSLPHDLFTPLHRLERVHLNHNPWHCNCDVLWLSWWLKETVPSNTTCCARCHAPAGLKGRYIGELDQSHFTCYAPVIVEPPTDLNVTEGMAAELKCRTGTSMTSVNWLTPNGTLMTHGSYRVRISVLHDGTLNFTNVTVQDTGQYTCMVTNSAGNTTASATLNVSAVDPVAAGGTGSGGGGPGGSGGVGGGSGGYTYFTTVTVETLETQPGEEALQPRGTEKEPPGPTTDGVWGGGRPGDAAGPASSSTTAPAPRSSRPTEKAFTVPITDVTENALKDLDDVMKTTKIIIGCFVAITFMAAVMLVAFYKLRKQHQLHKHHGPTRTVEIINVEDELPAASAVSVAAAAAVASGGGVGGDSHLALPALERDHLNHHHYVAAAFKAHYSSNPSGGGCGGKGPPGLNSIHEPLLFKSGSKENVQETQI
modifications: FLAG tag
B2: LRRC4B (157-713): FLAG-tagged LRRC4B deletion construct, amino acids 157-713 of SEQ ID NO: 2 (SEQ ID NO: 53) (protein)
chain: LSKLRELWLRNNPIESIPSYAFNRVPSLRRLDLGELKRLEYISEAAFEGLVNLRYLNLGMCNLKDIPNLTALVRLEELELSGNRLDLIRPGSFQGLTSLRKLWLMHAQVATIERNAFDDLKSLEELNLSHNNLMSLPHDLFTPLHRLERVHLNHNPWHCNCDVLWLSWWLKETVPSNTTCCARCHAPAGLKGRYIGELDQSHFTCYAPVIVEPPTDLNVTEGMAAELKCRTGTSMTSVNWLTPNGTLMTHGSYRVRISVLHDGTLNFTNVTVQDTGQYTCMVTNSAGNTTASATLNVSAVDPVAAGGTGSGGGGPGGSGGVGGGSGGYTYFTTVTVETLETQPGEEALQPRGTEKEPPGPTTDGVWGGGRPGDAAGPASSSTTAPAPRSSRPTEKAFTVPITDVTENALKDLDDVMKTTKIIIGCFVAITFMAAVMLVAFYKLRKQHQLHKHHGPTRTVEIINVEDELPAASAVSVAAAAAVASGGGVGGDSHLALPALERDHLNHHHYVAAAFKAHYSSNPSGGGCGGKGPPGLNSIHEPLLFKSGSKENVQETQI
modifications: FLAG tag
B3: LRRC4B (36-713): FLAG-tagged LRRC4B deletion construct, amino acids 36-713 of SEQ ID NO: 2 (SEQ ID NO: 52) (protein)
chain: AGGGGVAVTSAAGGGSPPATSCPVACSCSNQASRVICTRRDLAEVPASIPVNTRYLNLQENGIQVIRTDTFKHLRHLEILQLSKNLVRKIEVGAFNGLPSLNTLELFDNRLTTVPTQAFEYLSKLRELWLRNNPIESIPSYAFNRVPSLRRLDLGELKRLEYISEAAFEGLVNLRYLNLGMCNLKDIPNLTALVRLEELELSGNRLDLIRPGSFQGLTSLRKLWLMHAQVATIERNAFDDLKSLEELNLSHNNLMSLPHDLFTPLHRLERVHLNHNPWHCNCDVLWLSWWLKETVPSNTTCCARCHAPAGLKGRYIGELDQSHFTCYAPVIVEPPTDLNVTEGMAAELKCRTGTSMTSVNWLTPNGTLMTHGSYRVRISVLHDGTLNFTNVTVQDTGQYTCMVTNSAGNTTASATLNVSAVDPVAAGGTGSGGGGPGGSGGVGGGSGGYTYFTTVTVETLETQPGEEALQPRGTEKEPPGPTTDGVWGGGRPGDAAGPASSSTTAPAPRSSRPTEKAFTVPITDVTENALKDLDDVMKTTKIIIGCFVAITFMAAVMLVAFYKLRKQHQLHKHHGPTRTVEIINVEDELPAASAVSVAAAAAVASGGGVGGDSHLALPALERDHLNHHHYVAAAFKAHYSSNPSGGGCGGKGPPGLNSIHEPLLFKSGSKENVQETQI
modifications: FLAG tag

Molecular target: FAM19A5 protein (Homo sapiens, UniProt Q7Z5A7)
Sequence (Q7Z5A7 44-132): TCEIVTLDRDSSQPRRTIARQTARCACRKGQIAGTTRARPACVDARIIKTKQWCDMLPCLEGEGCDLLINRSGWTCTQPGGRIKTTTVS
Assay: Co-immunoprecipitation of FLAG-tagged LRRC4 family constructs with recombinant FAM19A5 in HEK293 cells
Assay type: binding
Conditions: HEK293 cells expressing FLAG-tagged construct, recombinant FAM19A5 protein (1 μM) 30 minutes; anti-FLAG immunoprecipitation
Procedure: To better understand the interaction between FAM19A5 and members of the LRRC4 protein family, HEK293 cells were modified to express a FLAG-tagged member of the LRRC4 protein family, i.e., LRRC4C protein, LRRC4 protein, or LRRC4B protein. Then, the HEK293 cells or primary cortical neurons were treated with recombinant FAM19A5 protein (1 μM) for 30 minutes, and the binding between FAM19A5 protein and the different members of the LRRC4 protein family was assessed using both co-immunoprecipitation and immunofluorescence assays.
For the co-immunoprecipitation assay, cell lysates from the different FAM19A5-treated HEK293 cells were collected and immunoprecipitated with an anti-FLAG antibody, anti-FAM19A5 (1-65) antibody, or a human IgG antibody (control). Immunoprecipitated proteins were immunoblotted with anti-FLAG and anti-FAM19A5 (3-2) antibodies. For the immunofluorescence assay, the HEK293 cells treated with the recombinant FAM19A5 protein were immunostained with anti-FAM19A5 (3-2) (to detect FAM19A5 protein expression) and anti-FLAG antibodies (to detect member of the LRRC4 protein family). The primary cortical neurons treated with the recombinant FAM19A5 protein were immunostained with anti-FAM19A5 (3-2) and anti-LRRC4B antibodies. The nuclei were stained with Hoechst33342 (blue).
To determine the specific motif or domain of the LRRC4B protein that is responsible for the binding to a FAM19A5 protein, various FLAG-tagged LRRC4B deletion constructs were generated (see Table 6 below). HEK293 cells were transfected with the different deletion constructs and then treated with recombinant FAM19A5 protein as described in Example 1. Then, the cell lysates from the different HEK293 cells were immunoprecipitated with the anti-FLAG antibody. The immunoprecipitated proteins were immunoblotted with anti-FLAG and anti-FAM19A5 (3-2) antibodies.
As described in Example 2, all members of the LRRC4 protein family were capable of binding to FAM19A5 protein to varying degrees. Therefore, to compare the bindings domains, the amino acid sequences of the LRRC4B, LRRC4, and LRRC4C proteins were aligned. […] Therefore, to assess whether the corresponding positions of LRRC4 and LRRC4C were important in the binding of these proteins to FAM19A5 protein, cDNAs encoding either (i) LRRC4C protein fragment (amino acids 354-527 of SEQ ID NO: 3; SEQ ID NO: 66) or (ii) LRRC4 protein fragment (amino acids 353-527 of SEQ ID NO: 1; SEQ ID NO: 67) were constructed (see Table 7). HEK293 cells were transfected to express either of the protein fragments and then treated with recombinant FAM19A5 protein as described in Example 1. Then, the cell lysates from the different HEK293 cells were immunoprecipitated with the anti-FLAG antibody. The immunoprecipitated proteins were immunoblotted with anti-FLAG and anti-FAM19A5 (3-2) antibodies.

Molecule	binding to FAM19A5 protein (co-immunoprecipitation)
B1	able to bind to the FAM19A5 protein
B2	able to bind to the FAM19A5 protein
B3	able to bind to the FAM19A5 protein
